Key:
[1] = target: Cyno PD-L2-Fc (cynomolgus); assay: ForteBio, IgG, avid
Mouse PD-L1-Fc (mouse) = Mouse PD-L1-Fc (mouse) (UniProt Q9EP73); assay: ForteBio, IgG, avid
[2] = target: Cyno PD-L1-Fc (cynomolgus) (UniProt G7PSE7); assay: ForteBio, IgG, avid
Mouse PD-L2-Fc (mouse) = Mouse PD-L2-Fc (mouse) (UniProt Q9WUL5); assay: ForteBio, IgG, avid
Human PD-L1-HIS (human) = Human PD-L1-HIS (human) (UniProt Q9NZQ7); assay: ForteBio, IgG, monovalent
Human PD-L2-HIS (human) = Human PD-L2-HIS (human) (UniProt Q9BQ51); assay: ForteBio, IgG, monovalent
Sequence of Human PD-L2-HIS (human) (Q9BQ51 20-220): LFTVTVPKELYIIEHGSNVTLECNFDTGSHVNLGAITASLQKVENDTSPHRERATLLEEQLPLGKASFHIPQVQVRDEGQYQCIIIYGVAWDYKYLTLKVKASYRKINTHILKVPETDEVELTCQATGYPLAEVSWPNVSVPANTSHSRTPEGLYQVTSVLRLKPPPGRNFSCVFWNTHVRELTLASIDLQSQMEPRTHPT

Sequence of Cyno PD-L1-Fc (cynomolgus) (G7PSE7 entry or part of it limits assumed): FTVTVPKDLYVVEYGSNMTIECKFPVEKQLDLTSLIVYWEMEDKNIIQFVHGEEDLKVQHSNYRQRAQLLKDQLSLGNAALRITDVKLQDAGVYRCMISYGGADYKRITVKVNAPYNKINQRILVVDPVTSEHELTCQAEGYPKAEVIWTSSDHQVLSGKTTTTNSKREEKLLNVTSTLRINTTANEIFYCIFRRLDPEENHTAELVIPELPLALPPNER
Sequence of Cyno PD-L2-Fc (cynomolgus) (chain, as listed by the source): as the sequence (Q9BQ51 20-220) above, with V19A, P62S, S67L, V139I, P166H, T178A, H179Q, M194I counted along it
Sequence of Human PD-L1-HIS (human) (Q9NZQ7 19-238 limits assumed): as the sequence (G7PSE7 entry or part of it limits assumed) above, with T33A, S34A, N62S, Q68R, R82Q, L173F, A185T, I192T, L215H counted along it
Sequence of Mouse PD-L1-Fc (mouse) (Q9EP73 19-239 limits assumed): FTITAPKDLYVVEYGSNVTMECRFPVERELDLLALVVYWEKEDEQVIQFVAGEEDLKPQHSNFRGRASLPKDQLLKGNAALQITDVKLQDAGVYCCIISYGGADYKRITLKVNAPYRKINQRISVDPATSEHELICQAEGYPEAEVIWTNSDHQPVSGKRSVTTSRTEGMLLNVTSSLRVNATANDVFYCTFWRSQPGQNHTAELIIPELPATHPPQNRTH
Sequence of Mouse PD-L2-Fc (mouse) (Q9WUL5 20-219 limits assumed): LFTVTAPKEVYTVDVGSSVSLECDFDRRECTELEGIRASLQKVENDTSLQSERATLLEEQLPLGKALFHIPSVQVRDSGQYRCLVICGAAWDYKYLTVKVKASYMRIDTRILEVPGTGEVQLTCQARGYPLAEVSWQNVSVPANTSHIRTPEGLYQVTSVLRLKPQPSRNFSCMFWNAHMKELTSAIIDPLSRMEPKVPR

B1: BiPDL3-54 (antibody, part only; not given: light chain variable domain, V domains shown, part only)
VH: QVQLQQWGAGLLKPSETLSLTCAVYGGSLSGYPWSWIRQPPGKGLEWIGETDVSGWTDYNPSLKSRVTISVDTSKNQFSLKLSSVTAADTAVYYCARDGRRMGTPSFDIWGQGTMVTVSS
[1]
  Kd: 0.621 nM
Mouse PD-L1-Fc (mouse)
  Kd: 2.97 nM
[2]
  Kd: 0.442 nM
Mouse PD-L2-Fc (mouse)
  Kd: 0.694 nM
Human PD-L1-HIS (human)
  Kd: 15.5 nM
Human PD-L2-HIS (human)
  Kd: 2.2 nM

From US20250059282A1
